± gives the standard deviation of the averaged measurements.
System: ATP
Experiment: switch fluorescence ratio, 500 uM ATP over buffer (Cy3 cluster intensity, sum of 5 cycles each) (fold (ratio)); higher = stronger signal-on switching upon ATP binding; sequences stand for … in TCGTCGGCAGCGTCAGATGTGTATAAGAGACAGTTTTTTTTTTTTTTTTTTTTTTTTT…TC
Settings: aptamer strand: ATP DNA aptamer (quencher-CACCTGGGGGAGTATTGCGGAGGAAGG + anchor), 100 nM annealed; ATP concentration: 500 uM
Outline: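 Clusters with intensities outside 100-1000 RFU were excluded. The remaining Cy3-labelled switching-strand clusters on a modified Illumina MiSeq flow-cell had been annealed to 100 nM quencher-labelled ATP aptamer and imaged in selection buffer, then after 15 min with 500 uM ATP at 22 °C, for five cycles separated by NaOH stripping and re-annealing. The fluorescence ratio, averaged per switch-domain sequence, is each cluster's summed target-cycle Cy3 intensity over its summed buffer-cycle Cy3 intensity.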
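Also: ATP exposure 15 min at 22 °C before imaging.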

Row | Sequence | switch fluorescence ratio
1 | TCGCAAATTT | 1.3 ± 0.12
2 | TCGCATGTCT | 1.11 ± 0.098
3 | TCGCATTCGT | 1.25 ± 0.026
4 | TCGCATTGAG | 1.1 ± 0.011
5 | TCGCCAAATT | 1.1 ± 0.21
6 | TCGCCATTGT | 1.02 ± 0.03
7 | TCGCCGGGCG | 0.993 ± 0.0075
8 | TCGCCTGTTT | 1.003 ± 0.0036
9 | TCGCGATAAA | 1.06 ± 0.017
10 | TCGCGCATTG | 1.14 ± 0.13
11 | TCGCGCCTTG | 1.01 ± 0.021
12 | TCGCGGGGGG | 0.976 ± 0.034
13 | TCGCGTGGTA | 0.989 ± 0.038
14 | TCGCGTTCGG | 1.02 ± 0.013
15 | TCGCTATAGC | 1.02 ± 0.067
16 | TCGCTGAATA | 1.04 ± 0.052
17 | TCGCTGAGTG | 1.08 ± 0.12
18 | TCGCTTACAT | 1.0488 ± 0.00048
19 | TCGGAAATGT | 1.12 ± 0.14
20 | TCGGAATGGG | 0.975 ± 0.017
21 | TCGGACGGGT | 1.02 ± 0.025
22 | TCGGACTATA | 1.06 ± 0.033
23 | TCGGACTGAG | 0.968 ± 0.029
24 | TCGGACTTTA | 0.998 ± 0.042
25 | TCGGAGAGTC | 1.26 ± 0.53

Row | Sequence | switch fluorescence ratio
26 | TCGGAGGA | 1.03 ± 0.048
27 | TCGGAGTTTG | 0.9963 ± 0.0024
28 | TCGGCCCGTT | 1.01 ± 0.018
29 | TCGGCCGGAA | 1.08 ± 0.025
30 | TCGGCGGGGT | 1.75 ± 1.3
31 | TCGGCGTTGA | 0.992 ± 0.02
32 | TCGGCTAAAT | 1.003 ± 0.0063
33 | TCGGCTTTGA | 1.01 ± 0.03
34 | TCGGGAATTG | 1.04 ± 0.085
35 | TCGGGCCGG | 0.994 ± 0.023
36 | TCGGGCCTGT | 1 ± 0.034
37 | TCGGGCTAGC | 0.986 ± 0.012
38 | TCGGGGAGCG | 0.949 ± 0.042
39 | TCGGGGCAGC | 0.998 ± 0.042
40 | TCGGGGCGAA | 1.85 ± 1.3
41 | TCGGGGCTAG | 0.989 ± 0.025
42 | TCGGGGGATG | 0.987 ± 0.019
43 | TCGGGGGATT | 0.966 ± 0.028
44 | TCGGGGGTGT | 1.02 ± 0.029
45 | TCGGGGGTTA | 1.01 ± 0.023
46 | TCGGGGGTTG | 0.996 ± 0.056
47 | TCGGGGTACG | 1.01 ± 0.015
48 | TCGGGGTTAT | 1.04 ± 0.083
49 | TCGGGGTTCT | 1.01 ± 0.0064
50 | TCGGGGTTTG | 1 ± 0.016

Row | Sequence | switch fluorescence ratio
51 | TCGGGTAAGA | 1.04 ± 0.026
52 | TCGGGTACTT | 1.04 ± 0.055
53 | TCGGGTAGTT | 1.04 ± 0.055
54 | TCGGGTCTGT | 0.979 ± 0.025
55 | TCGGGTGGTA | 1.05 ± 0.097
56 | TCGGTAGGG | 0.9717 ± 0.003
57 | TCGGTAGGGA | 0.96 ± 0.021
58 | TCGGTAGTTA | 1.01 ± 0.047
59 | TCGGTATTGG | 1.09 ± 0.1
60 | TCGGTCGGGA | 1.022 ± 0.0017
61 | TCGGTCTTTT | 0.974 ± 0.029
62 | TCGGTGATTG | 0.991 ± 0.016
63 | TCGGTGGGGT | 0.982 ± 0.0061
64 | TCGGTGGGTG | 1.012 ± 0.0066
65 | TCGGTTAGTG | 0.991 ± 0.036
66 | TCGGTTGGTG | 0.969 ± 0.042
67 | TCGGTTGTCC | 0.978 ± 0.018
68 | TCGGTTTTAA | 1.01 ± 0.036
69 | TCGGTTTTTT | 1.01 ± 0.038
70 | TCGTAAACTT | 1.025 ± 0.005
71 | TCGTAACTGT | 1.03 ± 0.016
72 | TCGTAAGGGT | 1.18 ± 0.26
73 | TCGTACACGT | 0.978 ± 0.015
74 | TCGTACAGTA | 1.02 ± 0.029
75 | TCGTACGTTG | 1.01 ± 0.022

Row | Sequence | switch fluorescence ratio
76 | TCGTACTTAT | 1.12 ± 0.18
77 | TCGTAGGCAT | 1.004 ± 0.0036
78 | TCGTAGTCGT | 0.995 ± 0.064
79 | TCGTATCAAG | 0.969 ± 0.026
80 | TCGTATGTTA | 0.97 ± 0.014
81 | TCGTATTGGG | 1 ± 0.056
82 | TCGTCAAGTT | 1.007 ± 0.01
83 | TCGTCAGCGA | 2.77 ± 0.06
84 | TCGTCAGTG | 0.991 ± 0.012
85 | TCGTCGCGTA | 0.978 ± 0.14
86 | TCGTCGGGGA | 1.01 ± 0.014
87 | TCGTCGGTGG | 1 ± 0.011
88 | TCGTCGTCCT | 1.02 ± 0.024
89 | TCGTCTGGTT | 0.988 ± 0.03
90 | TCGTGACTGT | 1.02 ± 0.065
91 | TCGTGCTACA | 0.97 ± 0.041
92 | TCGTGGCGAG | 1.01 ± 0.028
93 | TCGTGGCTGT | 1 ± 0.042
94 | TCGTGGGAGC | 1.014 ± 0.0089
95 | TCGTGGGGAT | 1 ± 0.021
96 | TCGTGGGTGG | 1.03 ± 0.056
97 | TCGTGTACGC | 1 ± 0.023
98 | TCGTGTAGGG | 0.984 ± 0.014
99 | TCGTGTATGT | 1.014 ± 0.0039
100 | TCGTGTTCGG | 0.971 ± 0.029
